Source: PMC6726503 (Structure (London, England : 1993), 2019)

Target: T1, TGF-β2DM:TβRII binary complex (human, UniProt P37173 23-166)
T1 chain 1: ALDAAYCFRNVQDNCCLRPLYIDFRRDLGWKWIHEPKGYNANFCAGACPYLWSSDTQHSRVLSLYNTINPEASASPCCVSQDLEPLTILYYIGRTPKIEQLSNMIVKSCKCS
T1 chain 2: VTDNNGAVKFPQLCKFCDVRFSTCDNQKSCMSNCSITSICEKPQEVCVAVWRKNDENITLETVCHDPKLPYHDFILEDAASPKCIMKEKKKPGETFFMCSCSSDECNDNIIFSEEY
Experiment: SEC-MALS

stoichiometry N: 1 BG_(O-ZP) per TGF-β2DM dimer
B1: full-length rat betaglycan ectodomain (domain or fragment, UniProt P26342 24-789, looked up)
chain: GPEPSTRCELSPINASHPVQALMESFTVLSGCASRGTTGLPREVHVLNLRSTDQGPGQRQREVTLHLNPIASVHTHHKPIVFLLNSPQPLVWHLKTERLAAGVPRLFLVSEGSVVQFPSGNFSLTAETEERNFPQENEHLLRWAQKEYGAVTSFTELKIARNIYIKVGEDQVFPPTCNIGKNFLSLNYLAEYLQPKAAEGCVLPSQPHEKEVHIIELITPSSNPYSAFQVDIIVDIRPAQEDPEVVKNLVLILKCKKSVNWVIKSFDVKGNLKVIAPNSIGFGKESERSMTMTKLVRDDIPSTQENLMKWALDNGYRPVTSYTMAPVANRFHLRLENNEEMRDEEVHTIPPELRILLDPDHPPALDNPLFPGEGSPNGGLPFPFPDIPRRGWKEGEDRIPRPKQPIVPSVQLLPDHREPEEVQGGVDIALSVKCDHEKMVVAVDKDSFQTNGYSGMELTLLDPSCKAKMNGTHFVLESPLNGCGTRHRRSTPDGVVYYNSIVVQAPSPGDSSGWPDGYEDLESGDNGFPGDGDEGETAPLSRAGVVVFNCSLRQLRNPSGFQGQLDGNATFNMELYNTDLFLVPSPGVFSVAENEHVYVEVSVTKADQDLGFAIQTCFLSPYSNPDRMSDYTIIENICPKDDSVKFYSSKRVHFPIPHAEVDKKRFSFLFKSVFNTSLLFLHCELTLCSRKKGSLKLPRCVTPDDACTSLDATMIWTMMQNKKTFTKPLAVVLQVDYKENVPSTKDSSPIPPPPPQIFHGLDTLTV
